Assay results as given in the DeepSol protein solubility set.

Assay: soluble on expression in E. coli; label from the status in PepcDB or PDB records

Sequence | soluble on expression in E. coli
MVLFDVKKYETPDAKDVDMEQTKHNVSVFLSAYLAARCRVGQPREPKVTASFSLVPPSTAKNTFEAEQMLIQKEEAQEEFDYLHKLFVRGYSAIQHPHKPDVTERRKRIFYDRYINGNPIYLAAQRNCISEESVKQESNMIIVQFASALELVAFK | not soluble
MVLFMLSESKKKATNWEQITKKHGSVQCVKGCCCYSLIISFMKPKEKKDFVLFCLSSVVTCCRPIQIPSRQEKKGKFLCFFLLVLIR | soluble
MVLKTVALVGNPNVGKTTIFNALTGLRQHVGNWPGVTVEKKEGIMEYREKEFLVVDLPGIYSLTAHSIDELIARNFILDGNADVIVDIVDSTCLMRNLFLTLELFEMEVKNIILVLNKFDLLKKKGAKIDIKKMRKELGVPVIPTNAKKGEGVEELKRMIALMAEGKVTTNPIIPRYDEDIEREIKHISELLRGTPLAEKYPIRWLALKLLQRDEEVIKLVLKYLGQEKMDEILKHISELEEKYKRPLDIVIASQKYEFLEQLLRKFVVHE | soluble
MVLPLSLLKTAQNHPMLVELKNGETYNGHLKACDSWMNIHLVDVIFTSKDGDKFFKMSEAYVRGSTIKYLRIPETVVDLVKTEVNEVRRQQQREQSRGRGGGRGGRGGHRGGGGNRGGRGGAR | not soluble
MVLRRDFLTWCNETLQTALFKDYAPNGLQVEGREYIGKIVTSVTASRAAIDFAVEQKADLLLVHHGMFWKNELPTVTGWKKERIAALLRHDINMAGYHLPLDAHPTLGNNAQLADRLGFATEKRFGEQNLLNSGSLKQAKTLGALAAHIETVLQRKPVVIGKPEREIRRVAWCSGGAQGFFQTAIDEGVDLYLTGEISEAQYHLANETGTAFISAGHHATERYGVRALAESAAEVFGLEVCHFDENNPALEHHHHHH | soluble
MVMHIKQSTVRSMLIVARRGKKRLNLDPDALAVLTALINLLAQESVARAAQSAANTGSRHVTKEHLKRVIAQLMLDFAI | not soluble
MVMSIEASCHCGETVFEVTEAPSSVTRCTCSLCAKRGSLWAYYKPAQFRLLSPPENVTTYLWGSRTVKHHFCASCGCGTYSESPDWSTGKPDFDNPKVAVNARLFDDFDLDAVPVNMIDGKNLWLEHHHHHH | soluble
MVNFTVDEIRALMDRKRNIRNMSVIAHVDHGKSTLTDSLVSKAGIIAGSKAGETRFTDTRKDEQERCITIKSTAISLFFELEKKDLEFVKGENQFETVEVDGKKEKYNGFLINLIDSPGHVDFSSEVTAALRVTDGALVVVDCVSGVCVQTETVLRQAIAERIKPVLFMNKMDRALLELQLGAEELFQTFQRIVENINVIIATYGDDDGPMGPIMVDPSIGNVGFGSGLHGWAFTLKQFAEMYAGKFGVQVDKLMKNLWGDRFFDLKTKKWSSTQTDESKRGFCQFVLDPIFMVFDAVMNIKKDKTAALVEKLGIKLANDEKDLEGKPLMKVFMRKWLPAGDTMLQMIAFHLPSPVTAQKYRMEMLYEGPHDDEAAVAIKTCDPNGPLMMYISKMVPTSDKGRFYAFGRVFSGKVATGMKARIQGPNYVPGKKEDLYEKTIQRTILMMGRFIEPIEDIPSGNIAGLVGVDQYLVKGGTITTYKDAHNMRVMKFSVSPVVRVAVEAKNPADLPKLVEGLKRLAKSDPMVQCIFEESGEHIIAGAGELHLEICLKDLEEDHACIPLKKSDPVVSYRETVQSESNQICLSKSPNKHNRLHCTAQPMPDGLADDIEGGTVNARDEFKARAKILAEKYEYDVTEARKIWCFGPDGTGPNLLMDVTKGVQYLNEIKDSVVAGFQWATREGVLSDENMRGVRFNVHDVTLHADAIHRGGGQIIPTARRVFYASVLTAEPRLLEPVYLVEIQCPEAAVGGIYGVLNRRRGHVFEESQVTGTPMFVVKAYLPVNESFGFTADLRSNTGGQAFPQCVFDHWQVLPGDPLEAGTKPNQIVLDTRKRKGLKEGVPALDNYLDKM | not soluble
MVNQLIEPYGGTLVNLIDPEKREALKHEALSLPSLDLDWQQQCELEMLMTGAYSPLTGFMTRAQCARVESAQQLDDGSFWPSPITLTSRDRALADRRPGERLALRDGEGYMLAILTLSDVWKDGERWHLAGEVEGAALPPHPDFVSLRATPAELRALFVRRGWRRIIAWQARQPMHRAQYEFCLKSAIENEANLLLHPQVGGDITEAPAYFGLVRSFLAIRDRFPAATTQLSLLPAPPPEASGRALLLRAIVARNFGCSLLIAGGEHQPDGGDCRRGEDLTQNRVDPSVAERAEKIGVRLIAYPRMVYVEDRAEHLPEAEAPQGARLLTLSGEEFQRRMRAGLKIPEWYSFPEVLAELHRQTPPRERQGFTVFFTGLSGAGKSTLARALAARLMEMGGRCVTLLDGDIVRRHLSSELGFSKAHRDVNVRRIGFVASEITKNRGIAICAPIAPYRQTRRDVRAMIEAVGGFVEIHVATPIETCESRDRKGLYAKARAGLIPEFTGVSDPYEVPETPELAIDTTGLAIDEAVQQILLKLEHEGYLRLEHHHHHH | soluble
MVPEVIEIDGKQWRLIWHDEFEGSEVNKEYWTFEKGNGIAYGIPGWGNGELEYYTENNTYIVNGTLVIEARKEIITDPNEGTFLYTSSRLKTEGKVEFSPPVVVEARIKLPKGKGLWPAFWMLGSNIREVGWPNCGEIDIMEFLGHEPRTIHGTVHGPGYSGSKGITRAYTLPEGVPDFTEDFHVFGIVWYPDKIKWYVDGTFYHEVTKEQVEAMGYEWVFDKPFYIILNLAVGGYWPGNPDATTPFPAKMVVDYVRVYSFVSG | soluble
MVRGIRGAITVEEDTPEAIHQATRELLLKMLEANGIQSYEELAAVIFTVTEDLTSAFPAEAARQIGMHRVPLLSAREVPVPGSLPRVIRVLALWNTDTPQDRVRHVYLREAVRLRPDLESAQ | soluble
MVRIYTLTLAPSLDSATITPQIYPEGKLRCSAPVFEPGGGGINVARAIAHLGGTATAIFPAGGATGEHLVALLADENVPVSTVDAKDWTRQNLHVHVESSGEQYRFVMPGATLDDDEFRQLEEQVLEIESGAILVISGSLPPGVKVEKLTQLISAAQKQGIRCIIDSSGDALTAALALGDIELVKPNLKELSALVNRDLTQPDDVRKAAQELVQSGKARRVVVSLGPQGALGIDSENCIQVVPPPVKSQSTVGAGDSMVGAMTLKLAQDASLEEMVRFGVAAGSAATLNQGTRLCSRDDTQKIYAYLSAQ | not soluble
MVRLPPPTPPRKPNICGTSGNSNGINENIDTSTFSVSAAKALFESAKRPEVRNAAIAAAKNPFVRQTAKNVAQDEKARGAVLNAVKDPSGGNKISAAFAVADANRKSDSVPPPPPHRGGTSPGKLSGSHSAIRSQLENMHIGGSVMSSNSSTATPSYQSNSTSSYSSSAPVAPPPVPRHTQSIPSYSAPAISTPYGIAKFDYAPTQSDEMGLRIGDTVLISKKVDAEWFYGENQNQRTFGIVPSSYLDIKIPLKEAFTALPPRPAAPSGSSSGTYATAIYDYNSNEAGDLNFAVGSQIMVTARVNEEWLEGECFGRSGIFPSQFVDCPNLYQVPMKQSAPSSAPSYSHPITNNSGPKQTVTVSYDYDSGVASDLRLFEGDVITALEDIDAQWLLAECRGQQGMVPKTFLGPPYGSPKKAPSKGIAEIACAFSPKKAVATGDYHSEDPKHLYVTRGDHLLIVEDVDDYYYKGKLEAFKTLPAGILPKNIVKLEN | not soluble
MVRNRFIRKMKKNLFKSNHLSYLKSKWKVKITGQIKMDFDNLLNLEEQYYQEGFLEGQNENIKQSFLEGKQYGLQVGFQRFTLLGQMEGLCDVIESYGLHSPTLEKNIHTIRTLMKGLKMNNDDESVMEFERVLIKLKNKFRTILITLHRLVKDKRTPTVTFEVFEDVSRAIAGEIRGFVENEDIAKNKTKQNQAQSW | soluble
MVRRIAVFSLYNEHGIADDYVIFLLEKLREFVERIVVVSNGNLSKLSEIAIKASCDQLLVRENVGFDVWGYKTGIDAVGFDALSEYDELILLNDTCYGPLFPFSEMFSEMERRDCDFWGSAAHSKMTPNPFTGTGHLPRHLTANFIAVREKMLKSRAFKTYWENLPAIKTYIDAIMLHESQFTKHFTDLGYSAEAYVDPDKYGSHYPAFINVDETIINRFPLLKRRPFFHDPTFLNAQGIDLPRALRVLEETSDYDLNLIWRNVLRTSELRNLNTNAALMSVLPDERAKDDDAPSDYGKIAVCAHIYYTDMLEEILALTGNIPVPYDFIATTDTPDKKAEIEATLAKRPGVKNVIVRVVEKNRGRDMSSLFISLRDLLVDDRYDLVCRLHTKKSPQVQASRSNLFKRHMLENLLNTRGYVHNVLDMFHDNPSVGLAVPPVVHISYPTMGHAWFFNRPKVEETARLLNIKVKFDHDTPVAAYGTMFWFRPRALRKMFEHKWKWEDFNAEPNHVDGGLAHVLERLIAYAAQDAGYLEHHHHHH | soluble
MVRVDQNLFNEVMYLLDELSQDITVPKNVRKVAQDSKAKLSQENESLDLRCATVLSMLDEMANDPNVPAHGRTDLYTIISKLEALSKS | not soluble
MVRVGILGASGYGGAELLRLLKAHPEVELVGFSSRKYEGRPLEAAWPQLWDGRLFAAQEEVLERAEVVFLALPNGLSMEIAPEALKAGKRVVDLSGDFRLPPEVYEAWYRIPHKSPDLYREAVYGLPELHREELKGARLVANPGCYVTAATLALAPLAAEGVLKGAFVVGLSGVSGAGREAEGTAFAEVNENLKPYKAGGTHRHIPEMERNLGRILAQGRRVRTHGEARAVRLSFTPHLVPMTRGILVTAEAEVEGAWSQESLEALYRDFYAGEPFVRVLKGLPETKATLGSNRVDVRPLYEERTGRVLVFAALDNLVKGMAGQAVQNLNLMLGLPEETALPKEGLWP | soluble
MVSCQGTRPCIVNLLTMPSEDKLGEEISTRVINEYSKLKSACRPIIRPSGIREWTILAGVAAINRDGGANKIEILSIATGVKALPDSELQRSEGKILHDCHAEILALRGANTVLLNRIQNYNPSSGDKFIQHNDEIPARFNLKENWELALYISRLPCGDASMSFLNDNCKNDDFIKIEDSDEFQYVDRSVKTILRGRLNFNRRNVVRTKPGRYDSNITLSKSCSDKLLMKQRSSVLNCLNYELFEKPVFLKYIVIPNLEDETKHHLEQSFHTRLPNLDNEIKFLNCLKPFYDDKLDEEDVPGLMCSVKLFMDDFSTEEAILNGVRNGFYTKSSKPLRKHCQSQVSRFAQWELFKKIRPEYEGISYLEFKSRQKKRSQLIIAIKNILSPDGWIPTRTDDVK | not soluble
MVSQTERQHAIASLLAPTGAVSVGDLAEHFHVTTETVRRDLRIMESLGLLQRVHGGAISPEPMGTSPPRLKPALGKGMPPEPRVLELAETAVSLITPLARSIFLDSGLACTAIATVLGDPPEDARWTVVTSSPGAVIALSATDATSTVVLHGQVHGNCSSIIGSTAVDMISQLRADIAFVEVDAIQSDTSLCTFFPETIPIKQAMIKNAAFTVAVLSPRSPQDQELQLLKHPFSTLADFDALVTDDHTLDFPVLPDHNFQVVTPLEHHHHHH | soluble
MVTKAKQIREKESKVAEFKYKNLTQEEQDKLDAATFRRLLAHLDANKDVQNIDLMILAGFCRNCFSKWYKAEAENLSLDLDIDDARERVYGMTYDEWKQNHQPAATPEQLAAFEARQKK | not soluble
